In patent US20180208678A1 (UNIVERSITY OF CHICAGO, published 2018):
Positions count from the first letter of the chain named.

What was measured:
[1] = target: BgaD-D, smallest isozyme of the β-galactosidase from B. circulans ATCC 31382 (Biolacta) (Bacillus circulans ATCC 31382); test: bead assay, purified proteins: biotinylated monobody on streptavidin-coated beads, BgaD-D titrated (0-1000 nM shown), flow cytometry, 1:1 fit [panel b]
[2] = target: BgaD-D active site mutant E447K (Bacillus circulans ATCC 31382); test: bead assay, purified proteins, target given as BgaD-D/EK, titrated 0-1000 nM shown, 1:1 fit [panel a]
[3] = target: BgaD-D active site mutant E447R (Bacillus circulans ATCC 31382); test: bead assay, purified proteins, target given as BgaD-D/ER, titrated 0-1000 nM shown, 1:1 fit [panel a]
[4] = target: BgaD-D, smallest isozyme of the β-galactosidase from B. circulans ATCC 31382 (Biolacta) (Bacillus circulans ATCC 31382); test: Kd table; yeast-surface display (paragraph 202 repeats it as 12±3 nM)
[5] = target: BgaD-D, smallest isozyme of the β-galactosidase from B. circulans ATCC 31382 (Biolacta) (Bacillus circulans ATCC 31382); test: bead assay, purified proteins, target given as BgaD-D/WT, titrated 0-1000 nM shown, 1:1 fit [panel a]
[6] = target: BgaD-D active site mutant E447Q (Bacillus circulans ATCC 31382); test: bead assay, purified proteins, target given as BgaD-D/EQ, titrated 0-1000 nM shown, 1:1 fit [panel a]
[7] = target: BgaD-D, smallest isozyme of the β-galactosidase from B. circulans ATCC 31382 (Biolacta) (Bacillus circulans ATCC 31382); test: cell-based or functional assay
[8] = target: BgaD-D, smallest isozyme of the β-galactosidase from B. circulans ATCC 31382 (Biolacta) (Bacillus circulans ATCC 31382); test: KD (nM) to BgaD-D; assay not given; the values equal those of the bead assay with purified proteins in FIG. 3B [panel c]
[9] = target: BgaD-D, smallest isozyme of the β-galactosidase from B. circulans ATCC 31382 (Biolacta) (Bacillus circulans ATCC 31382); test: Kd table; yeast-surface display (paragraph 202 repeats it as 600±170 nM)
[10] = target: BgaD-D, smallest isozyme of the β-galactosidase from B. circulans ATCC 31382 (Biolacta) (Bacillus circulans ATCC 31382); test: Kd table; method not given
[11] = target: BgaD-D, smallest isozyme of the β-galactosidase from B. circulans ATCC 31382 (Biolacta) (Bacillus circulans ATCC 31382); test: bead assay with purified proteins, biotinylated monobody on streptavidin beads (FIG. 3B)
[12] = target: T1, Candida rugosa lipase 1 (CRL1) (Candida rugosa, UniProt P20261 16-549, biotinylated with NHS-LC-biotin, about 2 biotin per CRL1 molecule (binding assays)); test: yeast-surface display of the monobody, CRL1 titrated, flow cytometry, 1:1 fit [panel a]
T1 construct: Bought purified protein
Experimental: Affinity of monobodies to CRL1 was determined using yeast-surface display, as described previously. Yeast cells displaying a monobody were incubated with varying concentrations of CRL1, washed with the buffer and stained with appropriate fluorescently labeled secondary detection reagents, prior to analysis on a flow cytometer (Guava EasyCyte 6/L, Millipore). KD values were determined from plots of the mean fluorescent intensity against CRL1 concentration by fitting the 1:1 binding model using SigmaPlot software (Systat Software).

[13] = target: T1, Candida rugosa lipase 1 (CRL1); test: cell-based or functional assay

B1: Mb(BgaD_L23) (designed binder)
chain: VSSVPTKLEVVAATPTSLLISWDAFDGYWYDYVSFYRITYGESGGNSPVQEFTVPSSSSTATISGLKPGVDYTITVYAYSHSQQQYLSPNSINYRT
[1]
  Kd: 25 nM
[2]
  Kd: 156 nM
[3]
  Kd: 227 nM
[4]
  Kd: 12 nM
[5]
  Kd: 25 nM
[6]
  Kd: 46 nM
[7]
  production of DP4 by BgaD-D (fold reduction): 4.5 fold
  production of DP5+ by BgaD-D (fold reduction): 30 fold
[8]
  Kd: 25 nM

B2: Mb(BgaD_L19) (designed binder)
chain: B1 chain with F35Y, S43T, N90I
[9]
  Kd: 598 nM
[1]
  Kd: 37 nM
[2]
  Kd: 173 nM
[3]
  Kd: 224 nM
[5]
  Kd: 37 nM
[6]
  Kd: 72 nM

B3: Mb(BgaD_L24) (designed binder)
chain: B1 chain with T14A, S17T, F35Y, S43T, T62I, S80H, N90I
[10]
  Kd: 11 nM

B4: Mb(BgaD_L22) (designed binder)
chain: B1 chain with F35Y, S43T, E51V, Q84L, N90I
[10]
  Kd: 33 nM

B5: Mb(BgaD_L01) (designed binder)
chain: VSSVPTKLEVVAATPTSLLISWDAMDHTPYVYYYRITYGETGGNSPVQEFTVPGYYSTATISGLKPGVDYTITVYAGDLSWNFDFYSPISINYRT
[10]
  Kd: 163 nM

B6: Mb(BgaD_L03) (designed binder)
chain: VSSVPTKLEVVAATPTSLLISWDAGDYWVYYYRITYGETGGNSPVQEFTVPGYSSTATISGLKPGVDYTITVYAGDLSFNTYYYSPISINYRT
[10]
  Kd: 76 nM

B7: Mb(BgaD_L04) (designed binder)
chain: VSSVPTKLEVVAATPTSLLISWDAYEHWSGVYYYRITYGETGGNSPVQEFTVPGSSSTATISGLKPGVDYTITVYAYSYSYASMYSPISINYRT
[10]
  Kd: 137 nM

B8: Mb(BgaD_S07) (designed binder)
chain: VSSVPTKLEVVAATPTSLLISWDAPAVTVDLYLITYGETGFSYGFPQAFTVPGSKSTATISGLKPGVDYTITVYASTVDGHSSPISINYRT
[10]
  Kd: 488 nM

B9: Mb(BgaD_S08) (designed binder)
chain: VSSVPTKLEVVAATPTSLLISWDAPAVTVDLYVITYGETGGSSWPQAFTVPGSKSTATISGLKPGVDYTITVYAHSWDHSYSPISINYRT
[10]
  Kd: 214 nM

B10: Mb(BgaD_S13) (designed binder)
chain: VSSVPTKLEVVAATPTSLLISWDAPAVTVVFYVITYGETGVHWPGYQKFTVPGSKSTATISGLKPGVDYTITVYAQFPWYMGSPISINYRT
[10]
  Kd: 50 nM

B11: Mb(BgaD_S11) (designed binder)
chain: VSSVPTKLEVVAATPTSLLISWDAPAVTVVLYVITYGETGPGHSAWPQAFTVPGSKSTATISGLKPGVDYTITVYAYWDWDSHRYSPISINYRT
[10]
  Kd: 246 nM

B12: 1Mb39 S (designed binder)
chain: VSSVPTKLEVVAATPTSLLISWDAPAVTVDFYLITYGETGGPSWPQAFAVPGSKSTATISGLKPGVDYTITVYASSSSRISSSSSKPISINYRT
[10]
  Kd: 476 nM

B13: Mb(BgaD_L02) (designed binder)
chain: VSSVPTKLEVVAATPTSLLISWDANGWNYVKYYRITYGETGGNSPVQEFTVPGSSSTATISGLKPGVDYTITVYAYEYYSESSSSPISINYRT
[1]
  Kd: 9.9 nM
[2]
  Kd: 11 nM
[3]
  Kd: 11 nM
[5]
  Kd: 9.9 nM
[6]
  Kd: 12 nM
[8]
  Kd: 9.9 nM
[10]
  Kd: 5.7 nM

B14: Mb(BgaD_S09) (designed binder)
chain: VSSVPTKLEVVAATPTSLLISWDAPAVTVVYYVITYGETGGNSPVQEFTVPGSKSTATISGLKPGVDYTITVYAYSDQVEYYEYFYGSPISINYRT
[1]
  Kd: 171 nM
[2]
  Kd: 178 nM
[3]
  Kd: 157 nM
[5]
  Kd: 171 nM
[6]
  Kd: 239 nM
[8]
  Kd: 171 nM
[10]
  Kd: 184 nM

B15: Mb(BgaD_L18) (designed binder)
chain: VSSVPTKLEVVAATPTSLLISWDAESWYWPYYVSYYRITYGETGGNSPVQEFTVPSSSSTATISGLKPGVDYTITVYAFEHHEQRYYSPISINYRT
[10]
  Kd: 147 nM

B16: Mb(BgaD_L14) (designed binder)
chain: VSSVPTKLEVVAATPTSLLISWDASSYYGVVSYYRITYGETGGNSPVQEFTVPGYSSTATISGLKPGVDYTITVYASYYYWYTSYTKSPISINYRT
[11]
  Kd: 31 nM
[10]
  Kd: 37 nM

B17: Mb(CRL_L24) (designed binder)
chain: VSSVPTKLEVVAATPTSLLISWDASSSSVSYYRITYGETGGNSPVQEFTVPGSSSTATISGLKPGVDYTITVYAFGHYYGSWVWSPISINYRT
notes: also called Mb(L24)
[12]
  Kd: 9.3 nM

B18: Mb(CRL_L23) (designed binder)
chain: B17 chain with V83A
notes: Mb(L23) and Mb(L24) differ by one residue and could be 116/117 in either order; also called Mb(L23)
[12]
  Kd: 11 nM

B19: Mb(BgaD_S10) (designed binder)
chain: VSSVPTKLEVVAATPTSLLISWDAPAVTVVFYLITYGETGASSWPGYQEFTVPGSKSTATISGLKPGVDYTITVYAQYPWDTGSPISINYRT
[1]
  Kd: 13 nM
[2]
  Kd: 12 nM
[3]
  Kd: 16 nM
[5]
  Kd: 13 nM
[6]
  Kd: 16 nM
[8]
  Kd: 13 nM
[10]
  Kd: 15 nM

B20: Mb(BgaD_S06) (designed binder)
chain: B19 chain with L33V, S42A, S43V, Y47H, Y78G, P79G, W80R, D81W, T82K, G83S
[10]
  Kd: 24 nM

B21: Mb(BgaD_S12) (designed binder)
chain: B19 chain with L33I, S42A, S43V, Y47H, Q77V, Y78G, T82Y, G83Y
[10]
  Kd: 18 nM

B22: Mb(CRL_L18) (designed binder)
chain: VSSVPTKLEVVAATPTSLLISWDAMQYSEYDVTYYRITYGETGGNSPVQEFTVPGSSSTATISGLKPGVDYTITVYAVWQYMHYMHSYSPISINYRT
notes: 109 is Mb(S19)); also called Mb(L18)
[12]
  Kd: 54 nM
[13]
  CRL1 activity toward C8 triacylglyceride (fold reduction relative to CRL1 alone): 11 fold
  CRL1 activity toward C10 triacylglyceride (fold reduction relative to CRL1 alone): 102 fold
  CRL1 activity toward C12 triacylglyceride (fold reduction relative to CRL1 alone): 4.5 fold

B23: Mb(BgaD_L05) (designed binder)
chain: VSSVPTKLEVVAATPTSLLISWDAYKSLGGVDYYRITYGETGGNSPVQEFTVPGSSSTATISGLKPGVDYTITVYAGYLWYPYGEWSPISINYRT
[10]
  Kd: 515 nM
